B1: Chimera (chimeric parental antibody) PP13892 (antibody, human IgG4, V domains shown)
VH: DVQLQESGPDLVKPSQSLSLTCTVTGYSITSGYSWHWIRQFPGNNLEWMGYIQYSGNTNSNPSLKSRISITRDTSKNQFFLHLNSVTTEDTATYYCARWGSFDYWGQGTTLTVSS
VL: QIVLTQSPAIMSASPGEKVTMTCSASSSVNYMHWYQQKSGTSPKRWIYDTSKLASGVPARFSGSGSGTSYSLTISSMEAGDAATYYCQQWSGNPPTFGGGTILEIK
notes: Variable regions of murine AB053 on the same human IgG4 (S241P hinge modified) backbone as the humanized antibodies; also called H7879 + L7879
B2: humanized 5C12 antibody HC1 + LC1 (PP13893) (antibody, human IgG4 S228P, kappa, V domains shown)
VH: QVQLQESGPGLVKPSQTLSLTCTVSGYSITSGYSWHWIRQHPGKGLEWIGYIQYSGNTNSNPSLKSRVTISRDTSKNQFSLKLSSVTAADTAVYYCARWGSFDYWGQGTLVTVSS
VL: EIVLTQSPATLSLSPGERATLSCRASSSVNYLHWYQQKPGQAPRRLIYDTSKLATGIPARFSGSGSGTDYTLTISSLEPEDFAVYYCQQWSGNPPTFGGGTKVEIKR
notes: Human IgG4 (S241P hinge modified), expressed in HEK293; also called AB054; h5C12
B3: humanized 5C12 antibody HC1 + LC2 (PP13894) (antibody, human IgG4 S228P, kappa, V domains shown)
VH: QVQLQESGPGLVKPSQTLSLTCTVSGYSITSGYSWHWIRQHPGKGLEWIGYIQYSGNTNSNPSLKSRVTISRDTSKNQFSLKLSSVTAADTAVYYCARWGSFDYWGQGTLVTVSS
VL: EIVLTQSPATLSLSPGERATLSCRASSSVNYLHWYQQKPGQAPKRWIYDTSKLATGIPARFSGSGSGTDYTLTISSLEPEDFAVYYCQQWSGNPPTFGGGTKVEIKR
notes: Human IgG4 (S241P hinge modified), expressed in HEK293; also called H7880 + L7881
B4: humanized 5C12 antibody HC3 + LC3 (PP13901) (antibody, human IgG4 S228P, kappa, V domains shown)
VH: DVQLQESGPGLVKPSETLSLTCTVSGYSITSGYSWHWIRQPPGKGLEWIGYIQYSGNTNSNPSLKSRVTISRDTSKNQFSLRLSSVTAADTAVYYCARWGSFDYWGQGTMVTVSS
VL: DIVLTQTPATLSLSPGERATLSCRASSSVNYLHWYQQKPGQAPKRLIYDTSKLATGIPARFSGSGSGTDYTLTISSLEPEDFAVYYCQQWSGNPPTFGQGTRLEIKR
notes: Human IgG4 (S241P hinge modified), expressed in HEK293; also called H7882 + L7882
B5: humanized 5C12 antibody HC3 + LC1 (PP13899) (antibody, human IgG4 S228P, kappa, V domains shown)
VH: DVQLQESGPGLVKPSETLSLTCTVSGYSITSGYSWHWIRQPPGKGLEWIGYIQYSGNTNSNPSLKSRVTISRDTSKNQFSLRLSSVTAADTAVYYCARWGSFDYWGQGTMVTVSS
VL: EIVLTQSPATLSLSPGERATLSCRASSSVNYLHWYQQKPGQAPRRLIYDTSKLATGIPARFSGSGSGTDYTLTISSLEPEDFAVYYCQQWSGNPPTFGGGTKVEIKR
notes: Human IgG4 (S241P hinge modified), expressed in HEK293; also called H7882 + L7880
B6: humanized 5C12 antibody HC2 + LC2 (PP13897) (antibody, human IgG4 S228P, kappa, V domains shown)
VH: DVQLQESGPGLVKPSQTLSLTCTVTGYSITSGYSWHWIRQHPGKGLEWMGYIQYSGNTNSNPSLKSRVTISRDTSKNQFSLKLSSVTAADTAVYYCARWGSFDYWGQGTLVTVSS
VL: EIVLTQSPATLSLSPGERATLSCRASSSVNYLHWYQQKPGQAPKRWIYDTSKLATGIPARFSGSGSGTDYTLTISSLEPEDFAVYYCQQWSGNPPTFGGGTKVEIKR
notes: Human IgG4 (S241P hinge modified), expressed in HEK293; also called H7881 + L7881
B7: humanized 5C12 antibody HC3 + LC2 (PP13900) (antibody, human IgG4 S228P, kappa, V domains shown)
VH: DVQLQESGPGLVKPSETLSLTCTVSGYSITSGYSWHWIRQPPGKGLEWIGYIQYSGNTNSNPSLKSRVTISRDTSKNQFSLRLSSVTAADTAVYYCARWGSFDYWGQGTMVTVSS
VL: EIVLTQSPATLSLSPGERATLSCRASSSVNYLHWYQQKPGQAPKRWIYDTSKLATGIPARFSGSGSGTDYTLTISSLEPEDFAVYYCQQWSGNPPTFGGGTKVEIKR
notes: Human IgG4 (S241P hinge modified), expressed in HEK293; also called H7882 + L7881
B8: humanized 5C12 antibody HC1 + LC3 (PP13895) (antibody, human IgG4 S228P, kappa, V domains shown)
VH: QVQLQESGPGLVKPSQTLSLTCTVSGYSITSGYSWHWIRQHPGKGLEWIGYIQYSGNTNSNPSLKSRVTISRDTSKNQFSLKLSSVTAADTAVYYCARWGSFDYWGQGTLVTVSS
VL: DIVLTQTPATLSLSPGERATLSCRASSSVNYLHWYQQKPGQAPKRLIYDTSKLATGIPARFSGSGSGTDYTLTISSLEPEDFAVYYCQQWSGNPPTFGQGTRLEIKR
notes: Human IgG4 (S241P hinge modified), expressed in HEK293; also called H7880 + L7882
B9: humanized 5C12 antibody HC2 + LC3 (PP13898) (antibody, human IgG4 S228P, kappa, V domains shown)
VH: DVQLQESGPGLVKPSQTLSLTCTVTGYSITSGYSWHWIRQHPGKGLEWMGYIQYSGNTNSNPSLKSRVTISRDTSKNQFSLKLSSVTAADTAVYYCARWGSFDYWGQGTLVTVSS
VL: DIVLTQTPATLSLSPGERATLSCRASSSVNYLHWYQQKPGQAPKRLIYDTSKLATGIPARFSGSGSGTDYTLTISSLEPEDFAVYYCQQWSGNPPTFGQGTRLEIKR
notes: Human IgG4 (S241P hinge modified), expressed in HEK293; also called H7881 + L7882
B10: humanized 5C12 antibody HC2 + LC1 (PP13896) (antibody, human IgG4 S228P, kappa, V domains shown)
VH: DVQLQESGPGLVKPSQTLSLTCTVTGYSITSGYSWHWIRQHPGKGLEWMGYIQYSGNTNSNPSLKSRVTISRDTSKNQFSLKLSSVTAADTAVYYCARWGSFDYWGQGTLVTVSS
VL: EIVLTQSPATLSLSPGERATLSCRASSSVNYLHWYQQKPGQAPRRLIYDTSKLATGIPARFSGSGSGTDYTLTISSLEPEDFAVYYCQQWSGNPPTFGGGTKVEIKR
notes: Human IgG4 (S241P hinge modified), expressed in HEK293; also called H7881 + L7880

What was measured:
[1] = molecular target: T1, human blood protein factor XII (FXII) (human, UniProt P00748 20-615); assay: ELISA, human FXII coated at 1 µg/mL, goat anti-human IgG-HRP detection
T1 construct: mature; Single-chain zymogen as it circulates in plasma; also called human FXII; plasma-derived FXII
T1 sequence (looked up): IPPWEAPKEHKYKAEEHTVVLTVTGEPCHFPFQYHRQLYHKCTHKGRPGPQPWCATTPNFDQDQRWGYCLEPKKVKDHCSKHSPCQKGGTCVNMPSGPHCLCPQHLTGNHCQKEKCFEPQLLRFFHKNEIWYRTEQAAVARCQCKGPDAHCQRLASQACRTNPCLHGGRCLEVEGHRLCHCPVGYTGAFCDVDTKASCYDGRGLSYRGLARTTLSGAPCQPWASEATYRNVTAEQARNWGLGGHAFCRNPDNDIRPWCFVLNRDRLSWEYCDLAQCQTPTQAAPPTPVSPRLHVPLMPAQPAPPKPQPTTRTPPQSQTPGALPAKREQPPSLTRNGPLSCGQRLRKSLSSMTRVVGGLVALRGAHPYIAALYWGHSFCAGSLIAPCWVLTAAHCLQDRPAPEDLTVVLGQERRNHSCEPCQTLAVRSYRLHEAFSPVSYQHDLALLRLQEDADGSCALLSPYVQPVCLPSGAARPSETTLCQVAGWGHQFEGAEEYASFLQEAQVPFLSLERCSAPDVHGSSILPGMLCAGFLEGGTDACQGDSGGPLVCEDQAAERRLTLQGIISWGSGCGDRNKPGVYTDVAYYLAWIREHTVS
Method: One μg/mL of human FXII (Enzyme Research Labs, #HFXII 1212) was coated on the ELISA plate at 4° C. overnight. The coated plate was blocked with 2% BSA in phosphate buffered saline (PBS) at room temperature for one hour and then washed three times with PBS. All antibodies to be tested (PP13892-PP13901 or human Fc isotype control) were diluted with sample diluent in an 11 point, 5-fold, serial dilution starting at 10 μg/mL. Each sample was run in duplicate. Each concentration was incubated on the coated plate for one hour at room temperature and then washed three times with PBS. Bound antibody was detected with goat-anti-human IgG-HRP and washed six times with PBS. TMB substrate was added to each well and the reaction was stopped with 1M HCl. Absorbance was read at 450 nm.
EC₅₀ for the concentration response curve was calculated by plotting the OD measured at 450 nm against the logarithm of antibody concentration and the EC₅₀ was calculated by nonlinear regression analysis.

[2] = molecular target: T1, human blood protein factor XII (FXII); assay: BLI (Octet RED96), antibody on anti-human Fc biosensors, antigen in solution, 1:1 fit
Method: Multi-concentration kinetic experiments were performed on the Octet RED96 system (ForteBio). Anti-human Fc biosensors (ForteBio) were hydrated in sample diluent (0.1% BSA in PBS and 0.02% Tween 20) and preconditioned in pH 1.9 Glycine. Antigen was diluted by a 7-point, 3-fold serial dilution starting at 200 nM with sample diluent. Antibodies were diluted to 1μg/ml with sample diluent and then immobilized onto anti-human Fc biosensors. After baselines were established for 30 seconds in sample diluent, the biosensors were moved to wells containing serially diluted antigen to measure the association and dissociation. […] The binding affinities were characterized by fitting the kinetic sensorgrams to a monovalent binding model (1:1 binding).

Row | Binder | EC50 [1] [ng/mL] | Kd [2] [nM] | koff [2] [s⁻¹] | kon [2] [M⁻¹ s⁻¹]
1 | B1 | 9.04 | 0.24 | 0.00011 | 460000
2 | B2 | 9.12 | 0.3 | 0.00016 | 530000
3 | B3 | 8.22 | 0.3 | 0.00016 | 530000
4 | B4 | 9.47 | 0.35 | 0.00018 | 530000
5 | B5 | 8.48 | 0.27 | 0.00015 | 560000
6 | B6 | 8.78 | 0.15 | 9e-05 | 620000
7 | B7 | 7.69 | 0.32 | 0.00019 | 580000
8 | B8 | 9.02 | 0.41 | 0.0002 | 500000
9 | B9 | 8.09 | 0.31 | 0.00016 | 500000
10 | B10 | 8.24 | 0.44 | 0.00022 | 500000

Source: patent US20220089776A1 (OREGON HEALTH AND SCIENCE UNIVERSITY, published 2022)
